Data published in the supplement of paper PMC5998384.

Tests used:
HeLa Kyoto [1] = assay: solubility in G1/S (NP-40 vs SDS abundance) (log2 ratio); higher = more soluble; details: cell cycle stage: G1/S
HeLa Kyoto [2] = assay: melting temperature (median over replicates), in situ; higher = more thermally stable
HeLa Kyoto [3] = assay: solubility change mitosis vs G1/S (difference of NP-40 vs SDS log2 ratios) (log2 ratio difference); higher = more soluble in mitosis
HeLa Kyoto [4] = assay: thermal stability score vs G1/S (z-score of summed log2 fold changes over temperatures); higher = more thermally stable than in G1/S
[5] = cell cycle stage: early G1 (4.5 h after nocodazole release)
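For melting temperature (median over replicates), in situ in this document: HeLa Kyoto cells synchronized by double thymidine or nocodazole block, proteins quantified by TMT10plex mass spectrometry, three independent biological replicates.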
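For solubility change mitosis vs G1/S (difference of NP-40 vs SDS log2 ratios) in this document: synchronized HeLa Kyoto cells (double thymidine block for G1/S, nocodazole release for mitosis), protein amounts in NP-40 versus SDS lysates quantified by mass spectrometry, three biological replicates.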
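For solubility in G1/S (NP-40 vs SDS abundance) in this document: HeLa Kyoto cells arrested at G1/S by double thymidine block, proteins quantified by TMT10plex mass spectrometry in mild NP-40 versus SDS extracts, three biological replicates.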
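For thermal stability score vs G1/S (z-score of summed log2 fold changes over temperatures) in this document: synchronized HeLa Kyoto cells, proteins quantified by TMT10plex mass spectrometry, three biological replicates, mitosis taken 0.5 h after nocodazole release, G1/S directly after double thymidine block.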

## MEDLGENTMVLSTLRSLNNFISQRVEGGSGLDISTSAPGSLQMQYQQSMQLEERAEQIRSKSHLIQVEREKMQMELSHKRARVELERAASTSARNYEREVDRNQELLTRIRQLQEREAGAEEKMQEQLERNRQCQQNLDAASKRLREKEDSLAQAGETINALKGRISELQWSVMDQEMRVKRLESEKQELQEQLDLQHKKCQEANQKIQELQASQEARADHEQQIKDLEQKLSLQEQDAAIVKNMKSELVRLPRLERELKQLREESAHLREMRETNGLLQEELEGLQRKLGRQEKMQETLVGLELENERLLAKLQSWERLDQTMGLSIRTPEDLSRFVVELQQRELALKDKNSAVTSSARGLEKARQQLQEELRQVSGQLLEERKKRETHEALARRLQKRVLLLTKERDGMRAILGSYDSELTPAEYSPQLTRRMREAEDMVQKVHSHSAEMEAQLSQALEELGGQKQRADMLEMELKMLKSQSSSAEQSFLFSREEADTLRLKVEELEGERSRLEEEKRMLEAQLERRALQGDYDQSRTKVLHMSLNPTSVARQRLREDHSQLQAECERLRGLLRAMERGGTVPADLEAAAASLPSSKEVAELKKQVESAELKNQRLKEVFQTKIQEFRKACYTLTGYQIDITTENQYRLTSLYAEHPGDCLIFKATSPSGSKMQLLETEFSHTVGELIEVHLRRQDSIPAFLSSLTLELFSRQTVA [MAD1L1]
HeLa Kyoto [1]
  solubility in G1/S (log2): 0.361
HeLa Kyoto [2]; cell cycle stage: G1/S
  melting temperature: 48.4 °C
HeLa Kyoto [2]; cell cycle stage: mitosis
  melting temperature: 47.8 °C
HeLa Kyoto [3]
  solubility change mitosis (log2): -0.0768
HeLa Kyoto [4]; [5]
  thermal stability score: 0.414
HeLa Kyoto [4]; cell cycle stage: mitosis
  thermal stability score: 0.454

## MEDPQSKEPAGEAVALALLESPRPEGGEEPPRPSPEETQQCKFDGQETKGSKFITSSASDFSDPVYKEIAITNGCINRMSKEELRAKLSEFKLETRGVKDVLKKRLKNYYKKQKLMLKESNFADSYYDYICIIDFEATCEEGNPPEFVHEIIEFPVVLLNTHTLEIEDTFQQYVRPEINTQLSDFCISLTGITQDQVDRADTFPQVLKKVIDWMKLKELGTKYKYSLLTDGSWDMSKFLNIQCQLSRLKYPPFAKKWINIRKSYGNFYKVPRSQTKLTIMLEKLGMDYDGRPHCGLDDSKNIARIAVRMLQDGCELRINEKMHAGQLMSVSSSLPIEGTPPPQMPHFRK [ERI1]
HeLa Kyoto [1]
  solubility in G1/S (log2): -0.0987
HeLa Kyoto [2]; cell cycle stage: G1/S
  melting temperature: 51 °C
HeLa Kyoto [2]; cell cycle stage: mitosis
  melting temperature: 49.9 °C
HeLa Kyoto [3]
  solubility change mitosis (log2): -0.00712
HeLa Kyoto [4]; [5]
  thermal stability score: -0.616
HeLa Kyoto [4]; cell cycle stage: mitosis
  thermal stability score: 0.0498

## MEDPTLYIVERPLPGYPDAEAPEPSSAGAQAAEEPSGAGSEELIKSDQVNGVLVLSLLDKIIGAVDQIQLTQAQLEERQAEMEGAVQSIQGELSKLGKAHATTSNTVSKLLEKVRKVSVNVKTVRGSLERQAGQIKKLEVNEAELLRRRNFKVMIYQDEVKLPAKLSISKSLKESEALPEKEGEELGEGERPEEDAAALELSSDEAVEVEEVIEESRAERIKRSGLRRVDDFKKAFSKEKMEKTKVRTRENLEKTRLKTKENLEKTRHTLEKRMNKLGTRLVPAERREKLKTSRDKLRKSFTPDHVVYARSKTAVYKVPPFTFHVKKIREGQVEVLKATEMVEVGADDDEGGAERGEAGDLRRGSSPDVHALLEITEESDAVLVDKSDSD [PTRF]
HeLa Kyoto [1]
  solubility in G1/S (log2): -0.215
HeLa Kyoto [2]; cell cycle stage: G1/S
  melting temperature: 54.4 °C
HeLa Kyoto [2]; cell cycle stage: mitosis
  melting temperature: 52.4 °C
HeLa Kyoto [3]
  solubility change mitosis (log2): 0.094
HeLa Kyoto [4]; [5]
  thermal stability score: -3.64
HeLa Kyoto [4]; cell cycle stage: mitosis
  thermal stability score: -4.73

## MEDRLHMDNGLVPQKIVSVHLQDSTLKEVKDQVSNKQAQILEPKPEPSLEIKPEQDGMEHVGRDDPKALGEEPKQRRGSASGSEPAGDSDRGGGPVEHYHLHLSSCHECLELENSTIESVKFASAENIPDLPYDYSSSLESVADETSPEREGRRVNLTGKAPNILLYVGSDSQEALGRFHEVRSVLADCVDIDSYILYHLLEDSALRDPWTDNCLLLVIATRESIPEDLYQKFMAYLSQGGKVLGLSSSFTFGGFQVTSKGALHKTVQNLVFSKADQSEVKLSVLSSGCRYQEGPVRLSPGRLQGHLENEDKDRMIVHVPFGTRGGEAVLCQVHLELPPSSNIVQTPEDFNLLKSSNFRRYEVLREILTTLGLSCDMKQVPALTPLYLLSAAEEIRDPLMQWLGKHVDSEGEIKSGQLSLRFVSSYVSEVEITPSCIPVVTNMEAFSSEHFNLEIYRQNLQTKQLGKVILFAEVTPTTMRLLDGLMFQTPQEMGLIVIAARQTEGKGRGGNVWLSPVGCALSTLLISIPLRSQLGQRIPFVQHLMSVAVVEAVRSIPEYQDINLRVKWPNDIYYSDLMKIGGVLVNSTLMGETFYILIGCGFNVTNSNPTICINDLITEYNKQHKAELKPLRADYLIARVVTVLEKLIKEFQDKGPNSVLPLYYRYWVHSGQQVHLGSAEGPKVSIVGLDDSGFLQVHQEGGEVVTVHPDGNSFDMLRNLILPKRR [HLCS]
HeLa Kyoto [1]
  solubility in G1/S (log2): -0.0872
HeLa Kyoto [2]; cell cycle stage: G1/S
  melting temperature: 50.8 °C
HeLa Kyoto [2]; cell cycle stage: mitosis
  melting temperature: 51 °C
HeLa Kyoto [3]
  solubility change mitosis (log2): -0.216
HeLa Kyoto [4]; [5]
  thermal stability score: -0.0478
HeLa Kyoto [4]; cell cycle stage: mitosis
  thermal stability score: 0.641

## MEDYEQELCGVEDDFHNQFAAELEVLAELEGASTPSPSGVPLFTAGRPPRTFEEALARGDAASSPAPAASVGSSQGGARKRQVDADLQPAGSLPHAPRIKRPRLQVVKRLNFRSEEMEEPPPPDSSPTDITPPPSPEDLAELWGHGVSEAAADVGLTRASPAARNPVLRRPPILEDYVHVTSTEGVRAYLVLRADPMAPGVQGSLLHVPWRGGGQLDLLGVSLASLKKQVDGERRERLLQEAQKLSDTLHSLRSGEEEAAQPLGAPEEEPTDGQDASSHCLWVDEFAPRHYTELLSDDFTNRCLLKWLKLWDLVVFGHERPSRKPRPSVEPARVSKEATAPGKWKSHEQVLEEMLEAGLDPSQRPKQKVALLCGPPGLGKTTLAHVIARHAGYSVVEMNASDDRSPEVFRTRIEAATQMESVLGAGGKPNCLVIDEIDGAPVAAINVLLSILNRKGPQEVGPQGPAVPSGGGRRRRAEGGLLMRPIICICNDQFAPSLRQLKQQAFLLHFPPTLPSRLVQRLQEVSLRQGMRADPGVLAALCEKTDNDIRACINTLQFLYSRGQRELSVRDVQATRVGLKDQRRGLFSVWQEVFQLPRAQRRRVGQDPALPADTLLLGDGDAGSLTSASQRFYRVLHAAASAGEHEKVVQGLFDNFLRLRLRDSSLGAVCVALDWLAFDDLLAGAAHHSQSFQLLRYPPFLPVAFHVLFASSHTPRITFPSSQQEAQNRMSQMRNLIQTLVSGIAPATRSRATPQALLLDALCLLLDILAPKLRPVSTQLYSTREKQQLASLVGTMLAYSLTYRQERTPDGQYIYRLEPNVEELCRFPELPARKPLTYQTKQLIAREIEVEKMRRAEASARVENSPQVDGSPPGLEGLLGGIGEKGVHRPAPRNHEQRLEHIMRRAAREEQPEKDFFGRVVVRSTAVPSAGDTAPEQDSVERRMGTAVGRSEVWFRFNEGVSNAVRRSLYIRDLL [CHTF18]
HeLa Kyoto [1]
  solubility in G1/S (log2): 0.136
HeLa Kyoto [2]; cell cycle stage: G1/S
  melting temperature: 47 °C
HeLa Kyoto [2]; cell cycle stage: mitosis
  melting temperature: 49.3 °C
HeLa Kyoto [3]
  solubility change mitosis (log2): -0.209
HeLa Kyoto [4]; [5]
  thermal stability score: 1.86
HeLa Kyoto [4]; cell cycle stage: mitosis
  thermal stability score: 2.46
